Values quoted from earlier work as cited in PMC5310643.

Molecular target: κI light chain variable domain (germline) VL (Homo sapiens) (UniProt P01594)
Test: NMR diffusion

Kd: 217 µM
Substance: κI light chain variable domain (germline) VL (from UniProt P01594)
